According to publication PMC3974974:

Legend:
Experiment in all cases: SPR; SIRPα variants immobilized via a biotin tag on a streptavidin-coated CM5 chip, BIAcore 3000, 37 °C; dilutions of soluble monomeric CD47 (0.05 to 25.7 μM) injected; KD from equilibrium binding; purification of the variants from 293T not told
[1] = target: SIRPα variant v1, three Ig superfamily domains linked to rat CD4d3 and -4 and a biotinylation sequence (human)
[2] = target: SIRPα variant v10, three Ig superfamily domains linked to rat CD4d3 and -4 and a biotinylation sequence (human)
[3] = target: SIRPα variant v2, three Ig superfamily domains linked to rat CD4d3 and -4 and a biotinylation sequence (human)
[4] = target: SIRPα variant v5, three Ig superfamily domains linked to rat CD4d3 and -4 and a biotinylation sequence (human)
Sequence of SIRPα variant v5, three Ig superfamily domains linked to rat CD4d3 and -4 and a biotinylation sequence (human) (P78324 31-504, stated change not applied): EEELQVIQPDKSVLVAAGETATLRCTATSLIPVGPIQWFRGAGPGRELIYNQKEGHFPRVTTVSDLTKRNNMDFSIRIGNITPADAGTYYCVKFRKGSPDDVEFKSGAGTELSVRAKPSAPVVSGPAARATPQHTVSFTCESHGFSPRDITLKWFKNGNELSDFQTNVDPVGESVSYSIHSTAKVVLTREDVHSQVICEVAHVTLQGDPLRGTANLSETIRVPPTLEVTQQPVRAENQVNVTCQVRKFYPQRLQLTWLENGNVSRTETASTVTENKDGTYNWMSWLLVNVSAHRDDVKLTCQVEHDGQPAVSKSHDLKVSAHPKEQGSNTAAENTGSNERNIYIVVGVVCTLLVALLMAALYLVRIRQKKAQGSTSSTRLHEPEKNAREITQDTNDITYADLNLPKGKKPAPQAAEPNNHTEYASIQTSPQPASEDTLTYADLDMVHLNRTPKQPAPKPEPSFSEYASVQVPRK

[5] = target: SIRPα variant v7, three Ig superfamily domains linked to rat CD4d3 and -4 and a biotinylation sequence (human)
Sequence of SIRPα variant v7, three Ig superfamily domains linked to rat CD4d3 and -4 and a biotinylation sequence (human) (P78324 31-504, stated change not applied): as above

## Recombinant CD47 Ig superfamily domain (from UniProt Q08722 19-136) (domain or fragment)
[1]
  Kd: 740 nM
[2]
  Kd: 670 nM
[3]
  Kd: 640 nM
[4]
  Kd: 780 nM
[5]
  Kd: 650 nM
